{"source": "patent US20190336496A1", "about": "“SELECTIVE BCL-2 INHIBITORS IN COMBINATION WITH AN ANTI-PD-1 OR AN ANTI-PD-L1 ANTIBODY FOR THE TREATMENT OF CANCERS” (AbbVie Inc., priority 2018, published 2019)", "system": "CT26 tumors", "assay": "CT26 mouse colon carcinoma syngeneic model", "assay_type": "in vivo", "conditions": "CT26; groups of 10 mice; CR = tumor volume ≤25 mm^3 over at least 3 successive measurements", "note": "Values joined by “and” are separate entries in the source; they are usually repeats but may differ in a detail not shown here. Equal entries are not always repeated."}
{"molecule": "anti mu PD1 (17D2 murinized, VH2xVL1x)[mu IgG2a/k] DANA: Mouse anti-PD-1 antibody, heavy chain SEQ ID NO: 3, light chain SEQ ID NO: 4 (antibody) heavy: QVTLKESGPGILQSSQTLSLTCTFSGFSLSTYGMGVGWIRQPSGKGLEWLTNIWWDDDKYYNSSLKNRLTVSKDTANNQVFLKFTSVDIADTATYYCGRMEWGGSFDYWGQGIMVTVSSAKTTAPSVYPLAPVCGDTTGSSVTLGCLVKGYFPEPVTLTWNSGSLSSGVHTFPAVLQSDLYTLSSSVTVTSSTWPSQSITCNVAHPASSTKVDKKIEPRGPTIKPCPPCKCPAPNLLGGPSVFIFPPKIKDVLMISLSPIVTCVVVAVSEDDPDVQISWFVNNVEVHTAQTQTHREDYASTLRVVSALPIQHQDWMSGKEFKCKVNNKDLPAPIERTISKPKGSVRAPQVYVLPPPEEEMTKKQVTLTCMVTDFMPEDIYVEWTNNGKTELNYKNTEPVLDSDGSYFMYSKLRVEKKNWVERNSYSCSVVHEGLHNHHTTKSFSRTPGK light: DIVMTQTPVSLSVSLGGQVSISCRSSQSLEHRNGITFLSWYLQKPGQSPQLLIYKVSNRFSGISDRFSGRGSGTDFVLQINRVEPDDLGVYYCGQGTHYPLTFGSGTKLEIKRADAAPTVSIFPPSSEQLTSGGASVVCFLNNFYPKDINVKWKIDGSERQNGVLNSWTDQDSKDSTYSMSSTLTLTKDEYERHNSYTCEATHKTSTSPIVKSFNRNEC", "values": [{"measurement": "complete responses (CR)", "value": "did not lead to any complete responses and 0/10"}]}
